Data on four sequences can be found in article PMC7017808.

The subject of data set [1] is T1, SigL (sigma-54) (Clostridium beijerinckii), ORF:07123114.
T1 sequence: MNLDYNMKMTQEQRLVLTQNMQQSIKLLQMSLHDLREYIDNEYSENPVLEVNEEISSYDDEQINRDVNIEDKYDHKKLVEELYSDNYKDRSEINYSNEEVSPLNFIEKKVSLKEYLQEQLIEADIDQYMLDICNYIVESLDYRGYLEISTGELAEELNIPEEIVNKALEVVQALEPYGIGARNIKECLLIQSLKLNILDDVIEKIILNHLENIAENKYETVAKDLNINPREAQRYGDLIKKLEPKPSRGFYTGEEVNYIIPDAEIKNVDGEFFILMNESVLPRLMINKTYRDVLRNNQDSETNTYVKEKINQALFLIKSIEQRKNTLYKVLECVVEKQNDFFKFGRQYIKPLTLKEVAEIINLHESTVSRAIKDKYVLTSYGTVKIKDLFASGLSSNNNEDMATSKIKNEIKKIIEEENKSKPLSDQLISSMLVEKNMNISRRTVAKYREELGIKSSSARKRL
The experiment in a line: EMSA. Conditions: Not stated in the material; EMSA as in Zhang et al., 2014, with Cy5-labelled DNA. (In general: A gel shift assay detects complexes by their altered migration in electrophoresis.)

The subject of data set [2] is T2, AdhR-DBD (Clostridium beijerinckii), ORF:f910ab61.
T2 sequence: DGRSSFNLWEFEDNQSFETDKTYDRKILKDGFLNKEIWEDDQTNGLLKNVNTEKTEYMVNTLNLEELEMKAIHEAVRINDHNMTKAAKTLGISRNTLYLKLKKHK
Kind of data set: EMSA. Conditions: Not stated in the material; EMSA as in Zhang et al., 2014, with Cy5-labelled DNA.

“AGCCAGTGGCGATAAGAAAGTAAAACACATAATAATTGTTTTTAAAGTGTTTTATTATCCTCAAAAGTGCATAAATGCTACGATTGAACTCATGATCACATTTTTATTTCTGCATCAAAAACTTGGCACGGTTATTGCTTTATATATAAGCATAAGAGAAACAAAACAAAATTATATAAAGTATAAAAACAAAAAGTATTAAAAGGAGAGAGCGAACTTATCGCCACTGGCT (double strand) [adhA1 promoter -24/-12 fragment]”: the binding entry in data set [1] is recorded as “binds”. On to “AGCCAGTGGCGATAAGTTTTAACCTCTCCTTGGATATTTTTTTTACTAGCATTCATCTATTACACTATTATATAAAGCAAGTTTTATACCAATATTATATTTATACATAAATAAATATAAATCATCTCATAATCGCACAATTCATGAATCGAAGTGTGCAACTTTAAAAAAATAGTGTGTAATTTAACTTACACACTGCCTTATCGCCACTGGCT (double strand) [adhA2 promoter -24/-12 fragment]”, for which the binding result in data set [1] is reported as “binds”. On to “AGCCAGTGGCGATAAGTTAAATAAATAAACTATCATGAATCAAAAATTAACAATGTCTAAACTTAAAAAATGCAAAAAAATATATGTCCTAAAAGCATACAGTGTAATAAAACTGAACATTTTATTTATAAATTGTATTTTTTTAATACAGTAAATTTGCATTAGAAAAACTATATTGTTAATAATTAGATTATAAAATTTCAATAAATGGGGAGACTTATCGCCACTGGCT (double strand) [adhA2 promoter UAS fragment]”, for which the binding entry in data set [2] was “binds”. Same read-out and setting: the entry for “AGCCAGTGGCGATAAGAACAAAAAACTCGTAATTCCTCAGAAATATTATATTTAAAGGTTTTAAATTAAGTTATTAAATATATATATAATAAGTTATACATAAATTGATTGTTAAGCATATACTCATTTATATAAATAATTTTTAACAAAGATATGTCCTAAAATAATACAGTATAAATTTAATACAGCGTAATATTTTAGGACATGCTTTATAATCTTATCGCCACTGGCT (double strand) [adhA1 promoter UAS fragment]” is “binds”.
